From publication doi:10.1101/2025.03.12.642832

Molecular target: polyketide synthase 16 (Pks16) (D. discoideum (endogenous in AX2-214 cells)) (UniProt Q869W9)
Test: cryo-EM structure

## polyketide synthase 16 (Pks16), Q869W9 1-2603
  stoichiometry N: 2
